Reference: patent publication US20110086767A1, “MUTANTS OF GLYCOSIDE HYDROLASES AND USES THEREOF FOR SYNTHESIZING COMPLEX OLIGOSACCHARIDES AND DISACCHARIDE INTERMEDIATES” (Institut Pasteur, priority 2008, published 2011)
Positions count from the first letter of the chain named. Names and notes keep the numbering of the source.

B1: F229M: single mutant F229M of N. polysaccharea amylosucrase (protein)
chain: SPNSQYLKTRILDIYTPEQRAGIEKSEDWRQFSRRMDTHFPKLMNELDSVYGNNEALLPMLEMLLAQAWQSYSQRNSSLKDIDIARENNPDWILSNKQVGGVCYVDLFAGDLKGLKDKIPYFQELGLTYLHLMPLFKCPEGKSDGGYAVSSYRDVNPALGTIGDLREVIAALHEAGISAVVDFIFNHTSNEHEWAQRCAAGDPLFDNFYYIFPDRRMPDQYDRTLREIMPDQHPGGFSQLEDGRWVWTTFNSFQWDLNYSNPWVFRAMAGEMLFLANLGVDILRMDAVAFIWKQMGTSCENLPQAHALIRAFNAVMRIAAPAVFFKSEAIVHPDQVVQYIGQDECQIGYNPLQMALLWNTLATREVNLLHQALTYRHNLPEHTAWVNYVRSHDDIGWTFADEDAAYLGISGYDHRQFLNRFFVNRFDGSFARGVPFQYNPSTGDCRVSGTAAALVGLAQDDPHAVDRIKLLYSIALSTGGLPLIYLGDEVGTLNDDDWSQDSNKSDDSRWAHRPRYNEALYAQRNDPSTAAGQIYQDLRHMIAVRQSNPRFDGGRLVTFNTNNKHIIGYIRNNALLAFGNFSEYPQTVTAHTLQAMPFKAHDLIGGKTVSLNQDLTLQPYQVMWLEIA
B2: I228T-F290H: double mutant I228T, F290H of N. polysaccharea amylosucrase (protein)
chain: B1 chain with I228T, M229F, F290H
B3: I228L-F229L: double mutant I228L, F229L of N. polysaccharea amylosucrase (protein)
chain: B1 chain with I228L, M229L
B4: I228V-F290R: double mutant I228V, F290R of N. polysaccharea amylosucrase (protein)
chain: B1 chain with I228V, M229F, F290R
B5: A289H-F290S: double mutant A289H, F290S of N. polysaccharea amylosucrase (protein)
chain: B1 chain with M229F, A289H, F290S
B6: I228V-F229M: double mutant I228V, F229M of N. polysaccharea amylosucrase (protein)
chain: B1 chain with I228V
B7: F290G: single mutant F290G of N. polysaccharea amylosucrase (protein)
chain: B1 chain with M229F, F290G
B8: F290I: single mutant F290I of N. polysaccharea amylosucrase (protein)
chain: B1 chain with M229F, F290I
B9: I228K-F290L: double mutant I228K, F290L of N. polysaccharea amylosucrase (protein)
chain: B1 chain with I228K, M229F, F290L
B10: I228C-F229L: double mutant I228C, F229L of N. polysaccharea amylosucrase (protein)
chain: B1 chain with I228C, M229L
B11: I228V-F229L: double mutant I228V, F229L of N. polysaccharea amylosucrase (protein)
chain: B1 chain with I228V, M229L
B12: I228M-F229M: double mutant I228M, F229M of N. polysaccharea amylosucrase (protein)
chain: B1 chain with I228M
B13: I228K-F290W: double mutant I228K, F290W of N. polysaccharea amylosucrase (protein)
chain: B1 chain with I228K, M229F, F290W
B14: I228P-F290C: double mutant I228P, F290C of N. polysaccharea amylosucrase (protein)
chain: B1 chain with I228P, M229F, F290C
B15: F229L: single mutant F229L of N. polysaccharea amylosucrase (protein)
chain: B1 chain with M229L
B16: F290H: single mutant F290H of N. polysaccharea amylosucrase (protein)
chain: B1 chain with M229F, F290H
B17: I228V-F290H: double mutant I228V, F290H of N. polysaccharea amylosucrase (protein)
chain: B1 chain with I228V, M229F, F290H
B18: A289T-F290H: double mutant A289T, F290H of N. polysaccharea amylosucrase (protein)
chain: B1 chain with M229F, A289T, F290H
B19: I228T-F290K: double mutant I228T, F290K of N. polysaccharea amylosucrase (protein)
chain: B1 chain with I228T, M229F, F290K
B20: F290L: single mutant F290L of N. polysaccharea amylosucrase (protein)
chain: B1 chain with M229F, F290L

assay: HPLC screening of double-mutant libraries for variants able to glucosylate D-GlcpNAc; type: biochemical; settings: α-D-Glcp-(1→4)-α-D-GlcpNAc (ED) from sucrose and D-GlcpNAc, microplate format
Method: The protocol was established to enable the rapid identification of clones for which D-GlcpNAc glucosylation was improved. To obtain higher amounts of enzymes and facilitate detection of glucosylated compounds upon HPLC screening, mutants were produced in 96-DeepWell Format plates. Storage microplates containing monomutants were thawed and replicated to inoculate a starter culture in 96-well microplates containing, in each well, 150 μL LB medium supplemented with ampicillin (100 μg/mL). After growth for 24 h at 30° C. under agitation (200 rpm), plates were duplicated into 96-Deep Well plates containing, in each well, 1.1 mL LB medium supplemented with ampicillin (100 μg/mL) and IPTG (1 mM) to induce GST-AS expression. Cultures were then grown for 24 h at 30° C. under agitation (200 rpm). Plates were centrifuged (20 min, 3000 g, 4° C.) and the supernatant was removed. The cell pellet was resuspended in 200 μL of lysozyme (0.5 mg/mL), followed by freezing at −80° C. for 8 to 12 h. After thawing at room temperature, 100 μL of sucrose and 100 μL of acceptor (each at a final concentration of 73 mM) were added to each well. Enzymatic reaction was incubated at 30° C. during 24 h under agitation. The DeepWell plates were then centrifuged (20 min, 3000 g, 4° C.) and 300 μL of the supernatant was transferred to a filter micro-plate (PVDF 0.2 μm) to be clarified. Supernatant filtration was carried out by centrifugation of the filter micro-plate (5 min, 2000 g, 4° C.) into a novel microplate for screening.
The method for the expression of the mutant libraries is described in Example 1-1.
Acceptor reaction products were analyzed by HPLC analysis using a C18-AQ column (Bischoff C18, 125×4 mm, 3 μm) kept at room temperature and eluted with 0.6 mL/min of ultra-pure water to detect α-D-Glcp-(1→4)-α-D-GlcpNAc formation (analysis time: 7 min). To evaluate the efficiency of the glucosylation reaction, it was carried out complementary HPLC analyses with a Biorad HPX-87K Carbohydrate Analysis column (maintained at 65° C., and eluted at a flow rate of 0.6 mL/min with ultra-pure water). By this way, it was possible to measure sucrose consumption by RI detection and concomitant α-D-Glcp-(1-4)-α-D-GlcpNAc formation by UV220 nm and determine mutant ability to synthesize the desired disaccharide α-D-Glcp-(1→4)-α-D-GlcpNAc (i.e., % Glucosyl units transferred onto acceptor derivatives=[Glucosyl units transferred onto acceptor derivatives]/[Glucosyl units transferred from initial sucrose]×100)
All clones producing sucrose-utilizing variants were then picked and cultured in 96-well microplates. Following cell lysis, the acceptor reaction in the presence of D-GlcpNAc was then carried out in microplate format. HLPC analysis time for each clone was reduced to 7 min for detection of α-D-Glcp-(1→4)-α-D-GlcpNAc. When disaccharide formation was detected, complementary analyses were performed to determine sucrose consumption and disaccharide formation with more accuracy in order to calculate the glucosylation yield.

Molecule | Glusosylation Yield to synthesize ED
B1 | 79%
B2 | 56%
B3 | 35%
B4 | 25%
B5 | 40%
B6 | 29%
B7 | 53%
B8 | 16%
B9 | 47%
B10 | 78%
B11 | 56%
B12 | 28%
B13 | 50%
B14 | 22%
B15 | 49%
B16 | 46%
B17 | 61%
B18 | 40%
B19 | 72%

same assay, conditions: α-D-Glcp-(1→4)-α-D-GlcpNAc (ED) from sucrose and D-GlcpNAc, microplate format, listed as DM4_P2_A2

Molecule | Glusosylation Yield to synthesize ED
B20 | 55%

same assay, conditions: α-D-Glcp-(1→4)-α-D-GlcpNAc (ED) from sucrose and D-GlcpNAc, microplate format, listed as DM4_P2_G9

Molecule | Glusosylation Yield to synthesize ED
B20 | 20%
